Measured values: publication PMC5593896, “A signal-on built in-marker electrochemical aptasensor for human prostate-specific antigen based on a hairbrush-like gold nanostructure”

Target: prostate-specific antigen (PSA) (human, UniProt P07288 25-261)
Test: electrochemical aptasensor (signal-on, MB marker); immobilized aptamer; linear range 0.125-128 ng/mL, LOD 50 pg/mL (40 in Table 1); no Kd in material; 20 mM Tris-HCl pH 7.4, 1 h at 37 °C, then rinsed with Tris; salt not stated
Conditions: protein: commercial; label: methylene blue (3', redox marker)

Sequence of prostate-specific antigen (PSA) (P07288 25-261): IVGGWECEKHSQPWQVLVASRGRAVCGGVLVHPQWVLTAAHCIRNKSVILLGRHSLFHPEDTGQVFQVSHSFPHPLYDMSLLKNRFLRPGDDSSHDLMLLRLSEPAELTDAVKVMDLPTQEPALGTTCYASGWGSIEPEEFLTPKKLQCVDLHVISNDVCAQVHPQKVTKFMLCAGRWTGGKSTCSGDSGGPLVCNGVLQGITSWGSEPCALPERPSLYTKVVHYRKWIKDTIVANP

## TTTTTAATTAAAGCTCGCCATCAAATAGCTTT (ssDNA, 5' SH-(CH2)6; 3' methylene blue) [PSA aptamer (SH/MB)]
  binding result: binds
